Data published in the supplement of paper PMC11316812.
± gives the standard deviation of the averaged measurements.

Tests used:
hTERT-HMEC = test: percentage of EdU-negative (G0-arrested) nuclei per well, 72 h; higher = more G0 arrest; conditions: reference: sequence is the full UniProt precursor, the tested protein was the secreted form or ectodomain
MCF7 = test: as above; conditions: reference: sequence is the full UniProt precursor, the tested protein was the secreted form or ectodomain
[1] = protein concentration 0.010165 µM
[2] = protein concentration 0.10165 µM
[3] = protein concentration 0.0357143 µM
[4] = protein concentration 0.357143 µM
[5] = protein concentration 0.0295 µM
[6] = protein concentration 0.0225 µM
[7] = protein concentration 0.0301575 µM
[8] = protein concentration 0.301575 µM
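Also: secreted proteins added to cultured cells, EdU pulse at the end, nuclei found by Hoechst imaging, EdU status from nuclear versus surrounding ring intensity ratio, PBS as neutral control.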

Row | Sequence | percentage of EdU-negative (hTERT-HMEC; [6]) [%] | percentage of EdU-negative (hTERT-HMEC; protein concentration 0.225 µM) [%] | percentage of EdU-negative (MCF7; [6]) [%] | percentage of EdU-negative (MCF7; protein concentration 0.225 µM) [%] | further results
1 | MLGARLRLWVCALCSVCSMSVLRAYPNASPLLGSSWGGLIHLYTATARNSYHLQIHKNGHVDGAPHQTIYSALMIRSEDAGFVVITGVMSRRYLCMDFRGNIFGSHYFDPENCRFQHQTLENGYDVYHSPQYHFLVSLGRAKRAFLPGMNPPPYSQFLSRRNEIPLIHFNTPIPRRHTRSAEDDSERDPLNVLKPRARMTPAPASCSQELPSAEDNSPMASDPLGVVRGGRVNTHAGGTGPEGCRPFAKFI [Q9GZV9] | – | – | – | – | percentage of EdU-negative (hTERT-HMEC; [1]): 4.81 ± 0.08%; percentage of EdU-negative (hTERT-HMEC; [2]): 12.96 ± 0.081%; percentage of EdU-negative (MCF7; [1]): 24 ± 0.7%; percentage of EdU-negative (MCF7; [2]): 27.2 ± 0.45%
2 | MLGIWTLLPLVLTSVARLSSKSVNAQVTDINSKGLELRKTVTTVETQNLEGLHHDGQFCHKPCPPGERKARDCTVNGDEPDCVPCQEGKEYTDKAHFSSKCRRCRLCDEGHGLEVEINCTRTQNTKCRCKPNFFCNSTVCEHCDPCTKCEHGIIKECTLTSNTKCKEEGSRSNLGWLCLLLLPIPLIVWVKRKEVQKTCRKHRKENQGSHESPTLNPETVAINLSDVDLSKYITTIAGVMTLSQVKGFVRKNGVNEAKIDEIKNDNVQDTAEQKVQLLRNWHQLHGKKEAYDTLIKDLKKANLCTLAEKIQTIILKDITSDSENSNFRNEIQSLV | – | – | – | – | percentage of EdU-negative (hTERT-HMEC; [3]): 5.07 ± 0.45%; percentage of EdU-negative (hTERT-HMEC; [4]): 5.88 ± 1.1%; percentage of EdU-negative (MCF7; [3]): 23.4 ± 1.9%; percentage of EdU-negative (MCF7; [4]): 26.6 ± 0.71%
3 | MLGLPWKGGLSWALLLLLLGSQILLIYAWHFHEQRDCDEHNVMARYLPATVEFAVHTFNQQSKDYYAYRLGHILNSWKEQVESKTVFSMELLLGRTRCGKFEDDIDNCHFQESTELNNTFTCFFTISTRPWMTQFSLLNKTCLEGFH [Q9H4G1] | – | – | – | – | percentage of EdU-negative (hTERT-HMEC; [5]): 4.64 ± 0.079%; percentage of EdU-negative (hTERT-HMEC; protein concentration 0.295 µM): 4.42 ± 0.36%; percentage of EdU-negative (MCF7; [5]): 27.1 ± 2.6%; percentage of EdU-negative (MCF7; protein concentration 0.295 µM): 28.28 ± 0.082%
4 | MLGPCMLLLLLLLGLRLQLSLGIIPVEEENPDFWNREAAEALGAAKKLQPAQTAAKNLIIFLGDGMGVSTVTAARILKGQKKDKLGPEIPLAMDRFPYVALSKTYNVDKHVPDSGATATAYLCGVKGNFQTIGLSAAARFNQCNTTRGNEVISVMNRAKKAGKSVGVVTTTRVQHASPAGTYAHTVNRNWYSDADVPASARQEGCQDIATQLISNMDIDVILGGGRKYMFRMGTPDPEYPDDYSQGGTRLDGKNLVQEWLAKRQGARYVWNRTELMQASLDPSVTHLMGLFEPGDMKYEIHRDSTLDPSLMEMTEAALRLLSRNPRGFFLFVEGGRIDHGHHESRAYRALTETIMFDDAIERAGQLTSEEDTLSLVTADHSHVFSFGGYPLRGSSIFGLAPGKARDRKAYTVLLYGNGPGYVLKDGARPDVTESESGSPEYRQQSAVPLDEETHAGEDVAVFARGPQAHLVHGVQEQTFIAHVMAFAACLEPYTACDLAPPAGTTDAAHPGRSVVPALLPLLAGTLLLLETATAP | 5.09 ± 0.15 | 5.14 ± 0.97 | 27.28 ± 0.045 | 29.68 ± 0.2 | –
5 | MLGQVVTLILLLLLKVYQGKGCQGSADHVVSISGVPLQLQPNSIQTKVDSIAWKKLLPSQNGFHHILKWENGSLPSNTSNDRFSFIVKNLSLLIKAAQQQDSGLYCLEVTSISGKVQTATFQVFVFESLLPDKVEKPRLQGQGKILDRGRCQVALSCLVSRDGNVSYAWYRGSKLIQTAGNLTYLDEEVDINGTHTYTCNVSNPVSWESHTLNLTQDCQNAHQEFRFWPFLVIIVILSALFLGTLACFCVWRRKRKEKQSETSPKEFLTIYEDVKDLKTRRNHEQEQTFPGGGSTIYSMIQSQSSAPTSQEPAYTLYSLIQPSRKSGSRKRNHSPSFNSTIYEVIGKSQPKAQNPARLSRKELENFDVYS [Q9BZW8] | 5.21 ± 0.31 | 6.56 ± 1.1 | 25.82 ± 0.11 | 26.1 ± 1.3 | –
6 | MLGVLELLLLGAAWLAGPARGQNETEPIVLEGKCLVVCDSNPTSDPTGTALGISVRSGSAKVAFSAIRSTNHEPSEMSNRTMIIYFDQVLVNIGNNFDSERSTFIAPRKGIYSFNFHVVKVYNRQTIQVSLMLNGWPVISAFAGDQDVTREAASNGVLIQMEKGDRAYLKLERGNLMGGWKYSTFSGFLVFPL | 5.16 ± 0.97 | 5.71 ± 0.24 | 24.7 ± 1.6 | 24.9 ± 2.3 | –
7 | MLHLLALFLHCLPLASGDYDICKSWVTTDEGPTWEFYACQPKVMRLKDYVKVKVEPSGITCGDPPERFCSHENPYLCSNECDASNPDLAHPPRLMFDKEEEGLATYWQSITWSRYPSPLEANITLSWNKTVELTDDVVMTFEYGRPTVMVLEKSLDNGRTWQPYQFYAEDCMEAFGMSARRARDMSSSSAHRVLCTEEYSRWAGSKKEKHVRFEVRDRFAIFAGPDLRNMDNLYTRLESAKGLKEFFTLTDLRMRLLRPALGGTYVQRENLYKYFYAISNIEVIGRCKCNLHANLCSMREGSLQCECEHNTTGPDCGKCKKNFRTRSWRAGSYLPLPHGSPNACATAGSFGNCECYGHSNRCSYIDFLNVVTCVSCKHNTRGQHCQHCRLGYYRNGSAELDDENVCIECNCNQIGSVHDRCNETGFCECREGAAGPKCDDCLPTHYWRQGCYPNVCDDDQLLCQNGGTCLQNQRCACPRGYTGVRCEQPRCDPADDDGGLDCDRAPGAAPRPATLLGCLLLLGLAARLGR [Q96CW9] | 5.1 ± 0.37 | 5.79 ± 0.16 | 28.5 ± 0.47 | 28.61 ± 0.091 | –
8 | MLIFWTITLFLLGAAKGKEVCYEDLGCFSDTEPWGGTAIRPLKILPWSPEKIGTRFLLYTNENPNNFQILLLSDPSTIEASNFQMDRKTRFIIHGFIDKGDESWVTDMCKKLFEVEEVNCICVDWKKGSQATYTQAANNVRVVGAQVAQMLDILLTEYSYPPSKVHLIGHSLGAHVAGEAGSKTPGLSRITGLDPVEASFESTPEEVRLDPSDADFVDVIHTDAAPLIPFLGFGTNQQMGHLDFFPNGGESMPGCKKNALSQIVDLDGIWAGTRDFVACNHLRSYKYYLESILNPDGFAAYPCTSYKSFESDKCFPCPDQGCPQMGHYADKFAGRTSEEQQKFFLNTGEASNFARWRYGVSITLSGRTATGQIKVALFGNKGNTHQYSIFRGILKPGSTHSYEFDAKLDVGTIEKVKFLWNNNVINPTLPKVGATKITVQKGEEKTVYNFCSEDTVREDTLLTLTPC | – | – | – | – | percentage of EdU-negative (hTERT-HMEC; [7]): 5.42 ± 0.23%; percentage of EdU-negative (hTERT-HMEC; [8]): 5.14 ± 0.29%; percentage of EdU-negative (MCF7; [7]): 25.8 ± 0.77%; percentage of EdU-negative (MCF7; [8]): 26.6 ± 1.5%
